Measured values taken from US20140011734A1 (Sanofi, published 2014).
Starred links: 1 amine or outer side, 2 acyl side, 3 side chain; linkers in the order of their positions; H or OH if unused. Non-standard residues stand in square brackets, D forms with d. Amp = L-2-amino-3-methoxypropionic acid, COC[C@H](N[*:1])C(=O)[*:2]; Amb = L-2-amino-4-methoxybutyric acid, COCC[C@H](N[*:1])C(=O)[*:2]; NHCH2(1,3-C6H4)CH2CO = O=C(Cc1cccc(CN[*:1])c1)[*:2]; Nle = CCCC[C@H](N)C(=O)O; Abu = CC[C@H](N)C(=O)O; Aoc = NCCCCCCCC(=O)O; Ahp = NCCCCCCC(=O)O; βAla = NCCC(=O)O

Legend:
[1] = target: T1, blood platelet receptor glycoprotein Ib-IX-V complex (GPIb) (human, UniProt P07359 17-652; P13224 26-206; P14770 17-177; P40197 17-560); test: inhibition of static adhesion of human platelets to coated vWF-A1; grade C = IC50 lower than 1 µM
T1 construct: whole, on cells; also called GPIb complex; GPIb receptor
Experimental: (§1) Platelet rich plasma was carefully transferred again to fresh containers, PGE1 (0.5 μg/ml, Sigma) was added and the suspension was allowed to rest for 5 min. This was followed by another centrifugation step for 15 min at 360 g. The supernatant was discarded and the cell pellets were carefully resuspended in tyrode buffer (NaCl, 137 mM (Sigma S-3014); KCl, 2.7 mM (Sigma P-9541); NaHCO₃,12 mM (Riedel deHaen 31437); NaH₂PO₄×2H₂O, 0.36 mM (Merck 6345); MgCl₂×6 H₂O, 1 mM (Sigma M-2670); Hepes, 10 mM (Sigma H-1016); glucose, 5.6 mM (Merck 8342); BSA, 0.1% (Sigma A7906)), and PGE1 (0.25 μg/ml) was added. After 5 min of resting the suspension was spun down for 15 min at 300 g. The supernatant was discarded and the pellets were carefully resuspended in TBS buffer (Tris-HCl, 50 mM (Fluka 93371); NaCl, 120 mM (Sigma S-3014); KCl, 2.7 mM (Sigma P-9541); CaCl₂, 0.05 mM (Sigma C-3306); MgCl₂×6 H₂O, 2 mM (Sigma M-2670); BSA, 0.1% (Sigma A7906); pH 7.4). The platelet count was adjusted to 2×10⁵ cells/μl, and the suspensions from individual donors were pooled at this stage. The platelets were allowed to rest for 30 min at room temperature before calcein AM (2.5 μM per 2×10⁵ cells/pi (Molecular Probes C-3099)) was added. This was followed by 15 min incubation in the dark. Cells were diluted to 5×10⁴ cells/μl and ReoPro (3 μg/ml (Centocor B. V., Leiden, N L)) was added, followed by a 10 min incubation period in the dark before adding the platelets to the assay plates.
96 well plates (Greiner hb, black, clear bottom, F, 655097) were coated with human recombinant vWF-A1 domain (1.5 μg/well, AA 475-706, expressed in E. coli) in Tris buffer (pH 7.4; Tris-HCl, 25 mM; NaCl, 150 mM) and incubated for 1 h at room temperature. After washing the wells 3× with TBS, blocking buffer (TBS with 5% BSA) was added followed by an incubation for 1 h. The wells were washed again 3× with TBS before 200 μl TBS were added to each well, preventing them from drying out. TBS was flicked out and serial dilutions of the test compound were added. The washed and calcein AM labeled thrombocytes were added to the wells (2.5×10⁶ cells/well). Following an adhesion period of 1.5 h in the dark the wells were washed 3× with TBS. Measurement of fluorescence per well was performed in a SpectraMax M5 reader (Molecular Devices). From the raw data % inhibition and IC₅₀ values were calculated.

[2] = target: T1, blood platelet receptor glycoprotein …; test: cell-based or functional assay
[3] = target: T1, blood platelet receptor glycoprotein …; test: inhibition of static adhesion of human platelets to coated vWF-A1; grade A = showed activity at 10 µM
Experimental: as §1, with “The platelet count was adjusted to 2×10⁵ cells/μl, and the suspensions from individual donors were pooled at this stage. The platelets were allowed to rest for 30 min at room temperature before calcein AM (2.5 μM per 2×10⁵ cells/pi (Molecular Probes C-3099)) was added. This was followed by 15 min incubation in the dark. Cells were diluted to 5×10⁴ cells/μl and ReoPro (3 μg/ml (Centocor B. V., Leiden, N L)) was added, followed by a 10 min incubation period in the dark before adding the platelets to the assay plates.” left out
96 well plates (Greiner hb, black, clear bottom, F, 655097) were coated with human recombinant vWF-A1 domain (1.5 μg/well, AA 475-706, expressed in E. coli) in Tris buffer (pH 7.4; Tris-HCl, 25 mM; NaCl, 150 mM) and incubated for 1 h at room temperature. […] Measurement of fluorescence per well was performed in a SpectraMax M5 reader (Molecular Devices). From the raw data % inhibition and IC₅₀ values were calculated.

T1 sequence (P07359 17-652, chain 1 of 4): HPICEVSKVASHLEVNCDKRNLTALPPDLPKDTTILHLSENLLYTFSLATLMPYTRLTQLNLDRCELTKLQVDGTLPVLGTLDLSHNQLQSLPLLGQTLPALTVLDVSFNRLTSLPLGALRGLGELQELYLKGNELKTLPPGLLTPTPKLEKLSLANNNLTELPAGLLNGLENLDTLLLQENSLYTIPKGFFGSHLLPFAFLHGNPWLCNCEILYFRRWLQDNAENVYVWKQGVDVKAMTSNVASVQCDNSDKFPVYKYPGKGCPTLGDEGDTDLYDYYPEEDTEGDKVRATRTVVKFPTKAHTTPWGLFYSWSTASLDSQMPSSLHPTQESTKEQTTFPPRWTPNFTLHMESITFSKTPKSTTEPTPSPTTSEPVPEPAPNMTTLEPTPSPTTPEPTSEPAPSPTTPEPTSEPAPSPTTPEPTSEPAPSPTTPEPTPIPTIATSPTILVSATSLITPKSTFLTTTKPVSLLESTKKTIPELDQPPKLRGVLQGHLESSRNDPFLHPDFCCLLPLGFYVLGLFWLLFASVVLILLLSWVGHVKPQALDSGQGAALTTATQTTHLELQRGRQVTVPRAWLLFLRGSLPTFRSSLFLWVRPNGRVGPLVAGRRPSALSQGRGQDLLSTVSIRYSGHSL
T1 sequence (P13224 26-206, chain 2 of 4): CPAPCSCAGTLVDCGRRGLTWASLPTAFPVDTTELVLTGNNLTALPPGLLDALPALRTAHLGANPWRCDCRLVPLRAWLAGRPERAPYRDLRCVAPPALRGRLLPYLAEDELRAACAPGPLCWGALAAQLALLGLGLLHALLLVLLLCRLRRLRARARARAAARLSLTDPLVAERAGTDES
T1 sequence (P14770 17-177, chain 3 of 4): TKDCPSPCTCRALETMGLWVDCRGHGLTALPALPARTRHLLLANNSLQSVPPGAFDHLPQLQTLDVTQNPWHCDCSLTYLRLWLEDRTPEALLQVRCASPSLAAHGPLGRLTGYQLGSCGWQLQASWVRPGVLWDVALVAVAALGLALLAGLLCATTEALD
T1 sequence (P40197 17-560, chain 4 of 4): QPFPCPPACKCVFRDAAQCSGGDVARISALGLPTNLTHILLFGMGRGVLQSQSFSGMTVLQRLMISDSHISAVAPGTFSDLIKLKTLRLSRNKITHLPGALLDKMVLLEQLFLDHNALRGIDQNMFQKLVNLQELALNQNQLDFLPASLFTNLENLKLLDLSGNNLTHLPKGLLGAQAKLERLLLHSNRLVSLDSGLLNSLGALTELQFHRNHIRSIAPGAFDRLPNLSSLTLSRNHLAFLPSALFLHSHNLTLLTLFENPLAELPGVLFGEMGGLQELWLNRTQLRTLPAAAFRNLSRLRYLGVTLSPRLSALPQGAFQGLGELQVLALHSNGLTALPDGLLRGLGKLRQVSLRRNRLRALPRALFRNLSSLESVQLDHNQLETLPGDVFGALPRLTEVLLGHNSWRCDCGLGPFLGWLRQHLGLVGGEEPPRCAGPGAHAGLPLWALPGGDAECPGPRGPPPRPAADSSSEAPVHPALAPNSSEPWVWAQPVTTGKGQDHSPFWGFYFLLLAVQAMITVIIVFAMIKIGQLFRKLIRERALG

| Binder | IC50 [1] | IC50 (average value), ristocetin-induced agglutination of human whole blood, impedance aggregometry [2] | binding result [3] |
| --- | --- | --- | --- |
| cyclo(LHNL[Ahp]TER[Abu]A) (SMILES CC[C@@H]1NC(=O)[C@H](CCCNC(=N)N)NC(=O)[C@H](CCC(=O)O)NC(=O)[C@H]([C@@H](C)O)NC(=O)CCCCCCNC(=O)[C@H](CC(C)C)NC(=O)[C@H](CC(N)=O)NC(=O)[C@H](Cc2c[nH]cn2)NC(=O)[C@H](CC(C)C)NC(=O)[C@H](C)NC1=O) [Cyclo[Leu-His-Asn-Leu-NH-(CH2)6-CO-Thr-Glu-Arg-Abu-Ala]] | < 1000 nM | – | – |
| cyclo(LHNL[Ahp]TERMA) (also: made as TFA salt and as acetate salt, Made as trifluoroacetic acid salt and also as acetic acid salt) [Cyclo[Leu-His-Asn-Leu-NH-(CH2)6-CO-Thr-Glu-Arg-Met-Ala]] | < 1000 nM | < 1000 nM | – |
| cyclo(LHNL[Ahp]VERMA) (SMILES CSCC[C@@H]1NC(=O)[C@H](CCCNC(=N)N)NC(=O)[C@H](CCC(=O)O)NC(=O)[C@H](C(C)C)NC(=O)CCCCCCNC(=O)[C@H](CC(C)C)NC(=O)[C@H](CC(N)=O)NC(=O)[C@H](Cc2c[nH]cn2)NC(=O)[C@H](CC(C)C)NC(=O)[C@H](C)NC1=O) [Cyclo[Leu-His-Asn-Leu-NH-(CH2)6-CO-Val-Glu-Arg-Met-Ala]] | – | – | binds |
| cyclo(LHNL[Ahp]TER[Amp]A) (SMILES COC[C@@H]1NC(=O)[C@H](CCCNC(=N)N)NC(=O)[C@H](CCC(=O)O)NC(=O)[C@H]([C@@H](C)O)NC(=O)CCCCCCNC(=O)[C@H](CC(C)C)NC(=O)[C@H](CC(N)=O)NC(=O)[C@H](Cc2c[nH]cn2)NC(=O)[C@H](CC(C)C)NC(=O)[C@H](C)NC1=O) [Cyclo[Leu-His-Asn-Leu-NH-(CH2)6-CO-Thr-Glu-Arg-Amp-Ala]] | < 1000 nM | – | – |
| cyclo(LHNL[Aoc]TERMA) (SMILES CSCC[C@@H]1NC(=O)[C@H](CCCNC(=N)N)NC(=O)[C@H](CCC(=O)O)NC(=O)[C@H]([C@@H](C)O)NC(=O)CCCCCCCNC(=O)[C@H](CC(C)C)NC(=O)[C@H](CC(N)=O)NC(=O)[C@H](Cc2c[nH]cn2)NC(=O)[C@H](CC(C)C)NC(=O)[C@H](C)NC1=O) [Cyclo[Leu-His-Asn-Leu-NH-(CH2)7-CO-Thr-Glu-Arg-Met-Ala]] | < 1000 nM | – | – |

Now from value to binder:

| IC50 [1] | IC50 (average value), ristocetin-induced agglutination of human whole blood, impedance aggregometry [2] | binding result [3] | Binder |
| --- | --- | --- | --- |
| < 1000 nM | < 1000 nM | – | cyclo(LHNL[NHCH2(1,3-C6H4)CH2CO]TERMA) (SMILES CSCC[C@@H]1NC(=O)[C@H](CCCNC(=N)N)NC(=O)[C@H](CCC(=O)O)NC(=O)[C@H]([C@@H](C)O)NC(=O)Cc2cccc(c2)CNC(=O)[C@H](CC(C)C)NC(=O)[C@H](CC(N)=O)NC(=O)[C@H](Cc2c[nH]cn2)NC(=O)[C@H](CC(C)C)NC(=O)[C@H](C)NC1=O) [Cyclo[Leu-His-Asn-Leu-NH-X4-X3-X2-X1-CO-Thr-Glu-Arg-Met-Ala] of example 2] |
| < 1000 nM | – | – | cyclo(LHNL[Ahp]TER[Nle]A) (SMILES CCCC[C@@H]1NC(=O)[C@H](CCCNC(=N)N)NC(=O)[C@H](CCC(=O)O)NC(=O)[C@H]([C@@H](C)O)NC(=O)CCCCCCNC(=O)[C@H](CC(C)C)NC(=O)[C@H](CC(N)=O)NC(=O)[C@H](Cc2c[nH]cn2)NC(=O)[C@H](CC(C)C)NC(=O)[C@H](C)NC1=O) [Cyclo[Leu-His-Asn-Leu-NH-(CH2)6-CO-Thr-Glu-Arg-Nle-Ala]] |
| < 1000 nM | – | – | cyclo(LHNL[Ahp]TER[Amb]A) (SMILES COCC[C@@H]1NC(=O)[C@H](CCCNC(=N)N)NC(=O)[C@H](CCC(=O)O)NC(=O)[C@H]([C@@H](C)O)NC(=O)CCCCCCNC(=O)[C@H](CC(C)C)NC(=O)[C@H](CC(N)=O)NC(=O)[C@H](Cc2c[nH]cn2)NC(=O)[C@H](CC(C)C)NC(=O)[C@H](C)NC1=O) [Cyclo[Leu-His-Asn-Leu-NH-(CH2)6-CO-Thr-Glu-Arg-Amb-Ala]] |
| – | – | binds | cyclo(LHNL[βAla]GTERMA) (SMILES CSCC[C@@H]1NC(=O)[C@H](CCCNC(=N)N)NC(=O)[C@H](CCC(=O)O)NC(=O)[C@H]([C@@H](C)O)NC(=O)CNC(=O)CCNC(=O)[C@H](CC(C)C)NC(=O)[C@H](CC(N)=O)NC(=O)[C@H](Cc2c[nH]cn2)NC(=O)[C@H](CC(C)C)NC(=O)[C@H](C)NC1=O) [Cyclo[Leu-His-Asn-Leu-NH-(CH2)2-CO-Gly-Thr-Glu-Arg-Met-Ala]] |
